Source: patent publication US20230382984A1, “TRABD PROTEIN, AND MONOCLONAL ANTIBODY THEREOF, AND ISOLATION, AMPLIFICATION AND USE THEREOF” (priority 2022, published 2023)

Key:
TRABD2A protein [1] = biological target: T1, TRABD2A protein (Homo sapiens, UniProt Q86V40); settings: different view; metal ions; cited from earlier work
T1 sequence (Q86V40 22-480): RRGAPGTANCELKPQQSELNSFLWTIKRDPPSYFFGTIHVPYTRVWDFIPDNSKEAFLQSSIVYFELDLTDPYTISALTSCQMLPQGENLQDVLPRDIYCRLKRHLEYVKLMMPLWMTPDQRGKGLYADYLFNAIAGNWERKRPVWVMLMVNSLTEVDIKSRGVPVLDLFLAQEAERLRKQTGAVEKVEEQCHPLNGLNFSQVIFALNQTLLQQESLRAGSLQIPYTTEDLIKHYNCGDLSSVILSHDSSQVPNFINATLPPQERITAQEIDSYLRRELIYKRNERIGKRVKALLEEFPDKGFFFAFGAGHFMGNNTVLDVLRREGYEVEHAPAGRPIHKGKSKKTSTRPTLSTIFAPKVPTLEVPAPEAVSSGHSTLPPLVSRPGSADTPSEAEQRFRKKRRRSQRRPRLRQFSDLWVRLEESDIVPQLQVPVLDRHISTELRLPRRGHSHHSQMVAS

TRABD protease = settings: early study; metal ions; cited from earlier work
[2] = biological target: T2, TRABD2A metalloprotease on CD8^+ T cells (Homo sapiens, UniProt Q86V40); test: Killing activity of CD8+ T cells on target cells after metal cofactor intervention of TRABD2A; type: cell-based; settings: metal cations at different concentrations acting on CD8+ T cells; target cells CEM.T2 and MGC; FIG. 4A
T2 construct: action of metal ions Mn^2+, Co^2+ and Ni^2+ on TRABD2A metalloprotease on CD8^+ T cells; endogenous in cells
T2 sequence (Q86V40 22-480): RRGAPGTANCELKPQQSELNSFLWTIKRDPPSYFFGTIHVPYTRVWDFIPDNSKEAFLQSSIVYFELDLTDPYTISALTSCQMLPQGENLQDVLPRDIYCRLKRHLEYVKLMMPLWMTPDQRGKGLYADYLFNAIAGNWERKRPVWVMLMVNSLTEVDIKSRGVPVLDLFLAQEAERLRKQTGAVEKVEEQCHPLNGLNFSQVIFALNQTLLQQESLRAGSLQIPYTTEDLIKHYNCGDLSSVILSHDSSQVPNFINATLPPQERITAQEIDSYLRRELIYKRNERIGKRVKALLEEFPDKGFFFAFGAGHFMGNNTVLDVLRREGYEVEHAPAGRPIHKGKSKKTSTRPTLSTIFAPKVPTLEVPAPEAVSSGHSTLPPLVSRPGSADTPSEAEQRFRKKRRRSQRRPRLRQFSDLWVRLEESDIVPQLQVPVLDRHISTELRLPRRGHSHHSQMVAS
Source text: Since TRABD2A is a metalloprotease and its activity is affected by metal ions, and the metal ion Mn^2+ having an accelerating effect on TRABD2A metalloprotease activity and metal ions Co^2+ and Ni^2+ having an inhibiting effect were examined. The effect of the TRABD2A protein on CD8^+ T cells was observed by the action of metal ions Mn^2+, Co^2+ and Ni^2+ on TRABD2A metalloprotease on CD8^+ T cells.

[3] = biological target: T3, TRABD2B metalloprotease on CD8^+ T cells (Homo sapiens, UniProt A6NFA1); test: Killing activity of CD8+ T cells on target cells after metal cofactor intervention with TRABD2B; type: cell-based; settings: Ni2+ at different concentrations; target cells CEM.T2; FIG. 4B
T3 construct: action of metal ion Ni^2+ upon TRABD2B metalloprotease on CD8^+ T cells; endogenous in cells
T3 sequence (A6NFA1 20-486): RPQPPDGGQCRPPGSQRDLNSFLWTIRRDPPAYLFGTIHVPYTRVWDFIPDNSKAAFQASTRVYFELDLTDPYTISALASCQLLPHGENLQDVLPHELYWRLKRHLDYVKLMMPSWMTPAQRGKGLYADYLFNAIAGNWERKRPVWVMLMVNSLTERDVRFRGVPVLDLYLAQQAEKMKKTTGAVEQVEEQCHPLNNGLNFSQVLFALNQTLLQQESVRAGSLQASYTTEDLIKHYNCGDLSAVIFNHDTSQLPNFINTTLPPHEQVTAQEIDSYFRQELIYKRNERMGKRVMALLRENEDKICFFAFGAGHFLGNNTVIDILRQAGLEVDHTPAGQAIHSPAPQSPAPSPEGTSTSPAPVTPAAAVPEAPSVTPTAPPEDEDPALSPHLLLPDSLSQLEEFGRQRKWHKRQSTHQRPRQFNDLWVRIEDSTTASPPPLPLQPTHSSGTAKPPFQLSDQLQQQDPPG
Source text: Since TRABD2B is a metalloprotease whose activity is affected by metal ions, metal ion Mn^2+ that promotes the TRABD2B metalloprotease activity was examined. The effect of the TRABD2B protein on CD8^+ T cells was observed by the action of metal ion Ni^2+ upon TRABD2B metalloprotease on CD8^+ T cells.

[4] = tested on: CD8^+ T cells and target cells; test: CCK8 and flow cytometry detection of toxic effect of metal cations; settings: concentration of 20 μM
Source text: FIG. 4A show the effect on the target cell killing ability of CD8^+ T cells after metal cofactor intervention of TRABD2A; • A: detection of the killing activity of the CD8^+ T cells on target cells CEM.T2 when metal cations Co^2+, Ni^2+ and Mn^2+ at different concentrations act on CD8^+ T cells; • B: detection of the killing activity of the CD8^+ T cells on target cells MGC when metal cations Co^2+, Ni^2+ and Mn^2+ at different concentrations act on CD8^+ T cells; • C: CCK8 and flow cytometry detection of the toxic effect of metal cations Co^2+, Ni^2+ and Mn^2+ at different concentrations on target cells.

target cells = test: CCK8 and flow cytometry detection of toxic effect of Ni2+ on target cells; type: cell-based; settings: concentration 20 μM
[5] = biological target: TRABD2A protein (antigen) (UniProt Q86V40); test: ELISA; negative control; fit value beyond top concentration
[6] = tested on: TRABD2A and TRABD2B proteins; test: Killing of target cells by CD8+ T cells under intervention with bispecific anti-TRABD2A/2B antibody; type: cell-based, human; settings: FIG. 7C
Source text: The effect of the bispecific antibody blocking both TRABD2A and TRABD2B proteins on target cell killing ability of CD8^+ T cells were examined.

TRABD2B protein = biological target: T4, TRABD2B protein (Homo sapiens, UniProt A6NFA1); test: Binding of anti-TRABD2A/2B bispecific antibody to antigen TRABD2B protein; settings: detection with antigen; FIG. 6C
T4 sequence (A6NFA1 20-486): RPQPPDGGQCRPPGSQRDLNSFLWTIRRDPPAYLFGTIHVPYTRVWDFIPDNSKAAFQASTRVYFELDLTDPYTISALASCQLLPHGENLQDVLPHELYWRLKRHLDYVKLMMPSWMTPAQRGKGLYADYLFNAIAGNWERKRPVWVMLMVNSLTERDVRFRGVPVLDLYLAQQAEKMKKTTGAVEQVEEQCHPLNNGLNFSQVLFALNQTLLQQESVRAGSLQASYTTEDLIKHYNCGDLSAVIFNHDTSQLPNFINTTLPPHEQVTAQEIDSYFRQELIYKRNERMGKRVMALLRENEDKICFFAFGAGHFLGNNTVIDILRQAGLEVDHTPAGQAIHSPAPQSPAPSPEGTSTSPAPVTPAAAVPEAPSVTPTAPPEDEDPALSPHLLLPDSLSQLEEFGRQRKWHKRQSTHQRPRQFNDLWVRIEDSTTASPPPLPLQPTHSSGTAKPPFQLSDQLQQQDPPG
Protocol: (§1) The bispecific antibody (amino acid sequences of heavy and light chains are set forth in SEQ IN NOs: 29 and 30, respectively) and negative control (amino acid sequences of heavy and light chains are set forth in SEQ IN NOs: 33 and 24, respectively) antibody synthesized in Example 5-3 were used. […] After the antibodies were concentrated, the protein concentration of anti-TRABD2A/2B was 1.23 mg/mL and that of the negative control was 1.02 mg/mL, as measured by A280. The proteins were snap frozen in liquid nitrogen and stored at −80° C. for later use.

TRABD2A protein [7] = biological target: T1, TRABD2A protein; test: Binding of anti-TRABD2A/2B bispecific antibody to antigen TRABD2A protein; settings: detection with antigen; FIG. 6C
Protocol: as §1

TRABD2A protein [8] = biological target: T1, TRABD2A protein; test: Binding of synthesized TRABD2A antibodies to antigen; settings: detection with antigen; FIG. 6A
Source text: Three antibodies anti-TRABD2A-1 (amino acid sequences of heavy and light chains are set forth in SEQ ID NOs: 7 and 8, respectively), anti-TRABD2A-2 (amino acid sequences of heavy and light chains are set forth in SEQ ID NOs: 13 and 14, respectively) and negative control (amino acid sequences of heavy and light chains are set forth in SEQ ID NOs: 19 and 20, respectively) synthesized in Example 5-1 were used. […] After concentration of the antibodies, the protein concentrations were measure by A280, and the concentrations of anti-TRABD2A-1, anti-TRABD2A-2 and negative control were 0.92 mg/mL, 1.6 mg/mL and 2.98 mg/mL, respectively. The proteins were snap frozen in liquid nitrogen and stored at −80° C. for later use.

[9] = biological target: T5, TRABD2A protein (antigen) (UniProt Q86V40 22-480); test: ELISA
T5 chain: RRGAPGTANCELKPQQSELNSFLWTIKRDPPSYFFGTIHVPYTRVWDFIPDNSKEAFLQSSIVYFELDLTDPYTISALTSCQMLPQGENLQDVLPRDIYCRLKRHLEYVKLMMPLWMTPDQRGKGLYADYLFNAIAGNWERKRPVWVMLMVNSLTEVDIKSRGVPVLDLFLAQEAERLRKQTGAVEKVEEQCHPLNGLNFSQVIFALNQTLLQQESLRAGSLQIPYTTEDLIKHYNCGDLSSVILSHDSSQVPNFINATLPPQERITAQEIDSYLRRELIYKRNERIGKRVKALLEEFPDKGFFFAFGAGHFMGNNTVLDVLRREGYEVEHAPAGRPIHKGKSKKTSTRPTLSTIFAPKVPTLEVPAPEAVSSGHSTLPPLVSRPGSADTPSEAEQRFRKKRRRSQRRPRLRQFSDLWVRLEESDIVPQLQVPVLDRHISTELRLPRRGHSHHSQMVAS

[10] = biological target: T6, TRABD2A protein on CD8^+ T cells (Homo sapiens, UniProt Q86V40); test: Killing of target cells by CD8+ T cells after intervention with TRABD2A antibody; type: cell-based; settings: antibody removed or unremoved after incubation; FIG. 7A
T6 construct: action of metal ions Mn^2+, Co^2+ and Ni^2+ on TRABD2A metalloprotease on CD8^+ T cells; endogenous in cells
T6 sequence (Q86V40 22-480): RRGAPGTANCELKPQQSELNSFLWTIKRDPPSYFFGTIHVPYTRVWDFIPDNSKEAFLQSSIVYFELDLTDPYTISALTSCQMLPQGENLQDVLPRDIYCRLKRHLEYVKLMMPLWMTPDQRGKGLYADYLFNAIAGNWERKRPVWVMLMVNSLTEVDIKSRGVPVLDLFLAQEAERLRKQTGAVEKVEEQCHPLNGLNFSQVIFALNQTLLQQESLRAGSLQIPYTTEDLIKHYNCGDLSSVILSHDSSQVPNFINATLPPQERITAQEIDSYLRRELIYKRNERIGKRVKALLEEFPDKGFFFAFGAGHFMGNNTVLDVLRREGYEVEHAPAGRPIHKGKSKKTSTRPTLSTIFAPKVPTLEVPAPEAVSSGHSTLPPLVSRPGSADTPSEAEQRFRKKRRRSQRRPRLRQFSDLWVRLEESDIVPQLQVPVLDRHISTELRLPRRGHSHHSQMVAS
Protocol: Two modes were adopted for intervening with TRABD2A protein on CD8^+ T cells, and the difference of the two modes was that the CD8^+ T cells, after incubation with the antibody, kill the target cells with residual blocking antibody removed or unremoved.

[Mg+2] [Mg^2+]
activity of the TRABD2A protein (TRABD2A protein [1]): independent

[Mn+2] [Mn^2+]
TRABD protease activity (TRABD protease): increase
tumor killing ability of CD8^+ T cells [2]: not enhanced

[Ni+2] [Ni^2+]
activity of the TRABD2A protein (TRABD2A protein [1]): inhibited
TRABD protease activity (TRABD protease): opposite effect
tumor killing ability of CD8^+ T cells [3]: enhanced
tumor killing ability of CD8^+ T cells [2]: enhanced
toxic effect on CD8^+ T cells and target cells [4]: little toxic effect
toxic effect on cells (target cells): little toxic effect

negative control antibody of Example 6-1
EC50 [5]: 14.1 µg/mL

B1: anti-TRABD2A/2B bispecific antibody: bispecific antibody recognizing both TRABD2A and TRABD2B; heavy and light chains SEQ ID NOs: 29 and 30 (antibody)
heavy: YQSQSINRYLNWYQQKPGKSNYLNWAPKLVIYAASSLQYCQQYNFYPLTFGYLNWYQSSGTYLNWYQQRPGKAPSSGTYQRPGKAPGGTKVSNYLNWYQSN
light: YAQKFQGRVTITVKVSCKASGGTFSSYAISWVRQAPGQGLEWMGQVQLVQSGAEVKKPGSSGIIPIFGTANADESTSTAYMELSSLRSEDTAVYYCARTRGYS
effect on the killing of target cells by CD8^+ T cells [6]: enhancing effect
binding to TRABD2B (TRABD2B protein): capable of binding
binding to TRABD2A (TRABD2A protein [7]): capable of binding

B2: anti-TRABD2A-2 (antibody)
heavy: APKLLIYAASSLRSGVPSRFSGSTCRASQSINRYLNWYQAPKLLIYAASSLRSGVPSRFSGSYAASSLQSGVPSRFSGSGSGTDFTLTISSLQPEDFATYYCQQGGTKV
light: YYWGQGTPVTVSKKPGSSVKVSAPKLLIYAASSLRSGVPSRFSGSGTFSSYAISWVRQAPGQGLEWMGGIIPIFGTANYAQKFQGRVTITADESTSTAYMELSSLRSEDTA
binding to antigen (TRABD2A protein [8]): high binding efficiency
EC50 [9]: 0.128 µg/mL
effect on target cell killing ability of CD8^+ T cells [10]: enhanced effect

B3: anti-TRABD2A-1 (antibody)
heavy: DASTLQRGVPSRFGGSGQMTQSPSSASTLQRGVPSRFGGSGSQSINRASTLQRGVPSRFGGSGGKAPKLVIYAASSLQSGVPSRFSGSGSGTDFTLTISSLQ
light: ASTLQRGVISWVRASTLQRGVPSRFGGSGPIFGTANYAQKFQGRVTITADESTSTAYMELSSLRSEDTAVYYASTLQRGVPSRFGGSGYYWGQGTPVTVSS
binding to antigen (TRABD2A protein [8]): high binding efficiency
EC50 [9]: 0.306 µg/mL
effect on target cell killing ability of CD8^+ T cells [10]: enhanced effect
